# T1: 5-enolpyruvylshikimate-3-phosphate synthase (EPSPS) (Escherichia coli, UniProt P0A6D3)
# T1 sequence (P0A6D3 1-427): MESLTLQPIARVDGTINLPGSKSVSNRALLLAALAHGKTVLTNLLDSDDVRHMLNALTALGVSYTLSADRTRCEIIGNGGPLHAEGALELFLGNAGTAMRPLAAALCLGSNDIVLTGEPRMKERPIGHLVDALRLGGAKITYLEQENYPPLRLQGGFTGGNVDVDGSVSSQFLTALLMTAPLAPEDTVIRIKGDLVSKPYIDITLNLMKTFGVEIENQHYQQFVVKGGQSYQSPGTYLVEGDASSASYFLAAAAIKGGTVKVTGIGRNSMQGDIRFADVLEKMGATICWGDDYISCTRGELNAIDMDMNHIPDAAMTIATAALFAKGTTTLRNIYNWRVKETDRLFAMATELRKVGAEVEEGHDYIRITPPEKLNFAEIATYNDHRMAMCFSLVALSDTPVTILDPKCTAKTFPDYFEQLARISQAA
# B1: 5-enolpyruvylshikimate-3-phosphate synthase (EPSPS) (Escherichia coli K-12) (protein)
# chain: T1 sequence (P0A6D3 1-427)
# What was measured:
# C=C(OP(=O)(O)O)C(=O)O = assay: purified protein
# [1] = test system: O=C(O)C1=C[C@@H](OP(=O)(O)O)[C@@H](O)[C@H](O)C1; assay: purified protein
# [2] = target: 5-enolpyruvylshikimate-3-phosphate synthase (EPSPS) (Mycobacterium tuberculosis, UniProt P9WPY5); assay: biochemical
# Sequence of 5-enolpyruvylshikimate-3-phosphate synthase (EPSPS) (Mycobacterium tuberculosis, UniProt P9WPY5) (P9WPY5 whole entry): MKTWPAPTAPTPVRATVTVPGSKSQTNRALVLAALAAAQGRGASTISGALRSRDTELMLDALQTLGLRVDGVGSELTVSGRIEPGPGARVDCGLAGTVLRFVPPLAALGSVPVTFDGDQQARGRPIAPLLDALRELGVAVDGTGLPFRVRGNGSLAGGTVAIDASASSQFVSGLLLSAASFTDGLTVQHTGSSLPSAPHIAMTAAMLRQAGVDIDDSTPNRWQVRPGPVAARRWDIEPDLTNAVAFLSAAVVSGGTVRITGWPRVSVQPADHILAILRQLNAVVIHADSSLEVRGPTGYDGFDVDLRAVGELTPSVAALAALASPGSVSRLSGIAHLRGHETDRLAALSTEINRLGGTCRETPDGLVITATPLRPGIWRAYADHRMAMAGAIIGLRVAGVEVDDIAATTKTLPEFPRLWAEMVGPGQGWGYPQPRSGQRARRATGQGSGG
# [3] = target: T1, 5-enolpyruvylshikimate-3-phosphate synthase (EPSPS); type: biochemical
# steady-state kinetics = substrate: C=C(OP(=O)(O)O)C(=O)O; assay: steady-state kinetics; type: biochemical, Escherichia coli; conditions: PEP/glyphosate-binding pocket
molecule,measurement,setting,value
5-enolpyruvylshikimate-3-phosphate synthase (EPSPS) (Mycobacterium tuberculosis H37Rv),Km,C=C(OP(=O)(O)O)C(=O)O,104 µM
same,Km,[1],16 µM
"O=C(O)CNCP(=O)(O)O [glyphosate, N-phosphonomethyl-glycine]",IC50,[2],260 µM
same,IC50,[3],3 µM
B1,Km,steady-state kinetics,52 µM
